This test has as its target ARTS-VN (UniProt O43236). Briefly: split reporter.

For the substance “Bcl-2delBH3-VC (from UniProt P10415 1-239) (natural protein)”, the percent decrease of the BiFC signal compared to WT Bcl-2 is 47%.
